Measured values as given in paper PMC5765006, “Angiopoietins bind thrombomodulin and inhibit its function as a thrombin cofactor” (Scientific Reports, 2018).
One block for each binder: values may come before it.

Columns and labels:
[1] = biological target: T1, Thrombomodulin (TM) expressed on COS cells (human, UniProt P07204 19-575); experiment: cell-surface binding assay (alkaline phosphatase-conjugated anti-human Fc, OD405); COS cells transfected with TM in 48-well plates, varying concentrations of FD-Fc in PBS/10% calf serum, 30 minutes at room temperature; specific binding = TM-transfected minus empty vector; apparent affinities; conditions: one partner purified
T1 construct: Thrombomodulin; cDNA isolated from expression libraries of HUVECs and EA.hy926 cells; Also used as the target of the functional rows on HUVECs (endogenous TM there); source: COS cells, transfected, on cells

[2] = biological target: T2, soluble extracellular domain of human TM (human, UniProt P07204 19-515); experiment: pull-down; 100 nM His-tagged TM extracellular domain with 5 nM thrombin and 0.25, 0.5 or 1.0 uM native Ang1, Ang2 or Ang4 (control), 60 minutes on ice, 0.15 M NaCl, 20 mM Tris pH 7.5, 0.1% Triton X-100, 2 mM CaCl2, 1 mg/ml BSA; TM collected on Ni-NTA beads, western blot; conditions: both partners purified
T2 construct: Thrombomodulin, human, soluble extracellular domain; also called soluble TM; source: bought: R&D Systems
T2 sequence (P07204 19-515): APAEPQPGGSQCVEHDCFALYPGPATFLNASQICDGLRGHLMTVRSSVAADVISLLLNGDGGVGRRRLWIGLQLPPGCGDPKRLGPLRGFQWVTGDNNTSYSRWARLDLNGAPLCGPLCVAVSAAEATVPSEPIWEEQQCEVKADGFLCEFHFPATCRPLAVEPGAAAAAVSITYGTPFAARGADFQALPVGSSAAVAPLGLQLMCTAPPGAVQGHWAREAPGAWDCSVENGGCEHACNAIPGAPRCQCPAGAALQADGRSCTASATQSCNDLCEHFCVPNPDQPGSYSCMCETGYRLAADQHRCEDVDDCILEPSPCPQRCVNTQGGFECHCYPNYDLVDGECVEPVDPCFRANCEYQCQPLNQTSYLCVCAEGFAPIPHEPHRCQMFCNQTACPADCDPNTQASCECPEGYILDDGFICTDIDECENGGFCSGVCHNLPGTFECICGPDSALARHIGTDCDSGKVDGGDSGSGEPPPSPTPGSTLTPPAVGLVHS

T1 sequence (P07204 19-575): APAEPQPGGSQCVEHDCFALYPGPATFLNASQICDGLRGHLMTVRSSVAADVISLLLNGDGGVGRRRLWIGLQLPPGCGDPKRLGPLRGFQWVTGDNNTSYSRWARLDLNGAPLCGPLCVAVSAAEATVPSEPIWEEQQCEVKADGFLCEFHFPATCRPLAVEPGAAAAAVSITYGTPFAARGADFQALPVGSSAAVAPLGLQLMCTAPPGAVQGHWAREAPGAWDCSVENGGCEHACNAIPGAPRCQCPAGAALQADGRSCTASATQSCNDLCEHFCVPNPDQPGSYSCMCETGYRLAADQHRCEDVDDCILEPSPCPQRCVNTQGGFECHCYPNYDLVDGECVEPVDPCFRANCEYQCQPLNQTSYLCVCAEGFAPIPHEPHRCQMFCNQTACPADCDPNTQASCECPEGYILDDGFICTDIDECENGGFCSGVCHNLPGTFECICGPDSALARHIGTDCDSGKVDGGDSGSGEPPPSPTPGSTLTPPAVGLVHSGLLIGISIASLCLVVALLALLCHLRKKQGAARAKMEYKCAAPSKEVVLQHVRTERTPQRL

B1: Ang1-FD-Fc (Fc fusion, human, UniProt Q15389 277-498, looked up)
chain: REEEKPFRDCADVYQAGFNKSGIYTIYINNMPEPKKVFCNMDVNGGGWTVIQHREDGSLDFQRGWKEYKMGFGNPSGEYWLGNEFIFAITSQRQYMLRIELMDWEGNRAYSQYDRFHIGNEKQNYRLYLKGHTGTAGKQSSLILHGADFSTKDADNDNCMCKCALMLTGGWWFDACGPSNLNGMFYTAGQNHGKLNGIKWHYFKGPSYSLRSTTMMIRPLDF
notes: Used at 1 ug/ml in the screen; also called fibrinogen-like domain (FD) of Ang1 fused to a human Fc tag
Kd [1]: ~88 nM

B2: native human Ang2 (ligand, UniProt O15123-3 19-495, looked up)
chain: YNNFRKSMDSIGKKQYQVQHGSCSYTFLLPEMDNCRSSSSPYVSNAVQRDAPLEYDDSVQRLQVLENIMENNTQWLMKLENYIQDNMKKEMVEIQQNAVQNQTAVMIEIGTNLLNQTAEQTRKLTDVEAQVLNQTTRLELQLLEHSLSTNKLEKQILDQTSEINKLQDKNSFLEKKVLAMEDKHIIQLQSIKEEKDQLQVLVSKQNSIIEELEKKIVTATVNNSVLQKQQHDLMETVNNLLTMMSTSNSKDPTVAKEEQISFRDCAEVFKSGHTTNGIYTLTFPNSTEEIKAYCDMEAGGGGWTIIQRREDGSVDFQRTWKEYKVGFGNPSGEYWLGNEFVSQLTNQQRYVLKIHLKDWEGNEAYSLYEHFYLSSEELNYRIHLKGLTGTAGKISSISQPGNDFSTKDGDNDKCICKCSQMLTGGWWFDACGPSNLNGMYYPQRQNTNKFNGIKWYYWKGSGYSLKATTMMIRPADF
notes: Angiopoietin-2, human, 'native' as against the chimeric FD forms; also called Angiopoietin-2; source: bought: R&D Systems
percent inhibition of thrombin/TM complex formation at 1 uM Ang2 [2]: ~80%

More lines, now with the values ahead:

binding result [2]: binds
B3: native human Ang1 (ligand, UniProt Q15389 16-498, looked up)
chain: HIGCSNQRRSPENSGRRYNRIQHGQCAYTFILPEHDGNCRESTTDQYNTNALQRDAPHVEPDFSSQKLQHLEHVMENYTQWLQKLENYIVENMKSEMAQIQQNAVQNHTATMLEIGTSLLSQTAEQTRKLTDVETQVLNQTSRLEIQLLENSLSTYKLEKQLLQQTNEILKIHEKNSLLEHKILEMEGKHKEELDTLKEEKENLQGLVTRQTYIIQELEKQLNRATTNNSVLQKQQLELMDTVHNLVNLCTKEGVLLKGGKREEEKPFRDCADVYQAGFNKSGIYTIYINNMPEPKKVFCNMDVNGGGWTVIQHREDGSLDFQRGWKEYKMGFGNPSGEYWLGNEFIFAITSQRQYMLRIELMDWEGNRAYSQYDRFHIGNEKQNYRLYLKGHTGTAGKQSSLILHGADFSTKDADNDNCMCKCALMLTGGWWFDACGPSNLNGMFYTAGQNHGKLNGIKWHYFKGPSYSLRSTTMMIRPLDF
notes: Angiopoietin-1, human, 'native' as against the chimeric FD forms; also called Angiopoietin-1; source: bought: R&D Systems

Kd [1]: ~8.3 nM
B4: Ang2-FD-Fc (Fc fusion, human, UniProt O15123-3 19-495, looked up)
chain: KEEQISFRDCAEVFKSGHTTNGIYTLTFPNSTEEIKAYCDMEAGGGGWTIIQRREDGSVDFQRTWKEYKVGFGNPSGEYWLGNEFVSQLTNQQRYVLKIHLKDWEGNEAYSLYEHFYLSSEELNYRIHLKGLTGTAGKISSISQPGNDFSTKDGDNDKCICKCSQMLTGGWWFDACGPSNLNGMYYPQRQNTNKFNGIKWYYWKGSGYSLKATTMMIRPADF
notes: Angiopoietin-2 (Ang2, ANGPT2), fibrinogen-like domain (FD); Detected with anti-human Fc
